46 substances from US11135246B2, “Peptides and combination of peptides for use in immunotherapy against leukemias and other cancers” (Immatics Biotechnologies GmbH, priority 2017, dated 2021) can be followed below.

The target in the experiment is HLA-B*44:02 (Homo sapiens, UniProt P01889, A223V/A65T/A93T/A95T/D201E/D98Y/E176V/E187L/E204Q/E69K/G107R/H137Y/K202T/L105A/L119I/N104T/N87E/Q56L/Q94N/R106L/R155S/R180D/S101N/S121R/S35A/S48T/T118I/V36M/W191S/Y140D/Y91S). Briefly: MHC binding assay, UV-ligand exchange with β2m ELISA, HLA-B*44:02. Particulars: binding to HLA-B*44:02, UV-ligand exchange. The text has this:
Candidate peptides for T cell based therapies according to the present invention were further tested for their MHC binding capacity (affinity). The individual peptide-MHC complexes were produced by UV-ligand exchange, where a UV-sensitive peptide is cleaved upon UV-irradiation, and exchanged with the peptide of interest as analyzed. Only peptide candidates that can effectively bind and stabilize the peptide-receptive MHC molecules prevent dissociation of the MHC complexes. To determine the yield of the exchange reaction, an ELISA was performed based on the detection of the light chain (β2m) of stabilized MHC complexes. The assay was performed as generally described in Rodenko et al. (Rodenko et al., 2006).
96 well MAXISorp plates (NUNC) were coated over night with 2 ug/ml streptavidin in PBS at room temperature, washed 4× and blocked for 1 h at 37° C. in 2% BSA containing blocking buffer. Refolded HLA-A*02:01/MLA-001 monomers served as standards, covering the range of 15-500 ng/ml. Peptide-MHC monomers of the UV-exchange reaction were diluted 100-fold in blocking buffer. Samples were incubated for 1 h at 37° C., washed four times, incubated with 2 ug/ml HRP conjugated anti-β2m for 1 h at 37° C., washed again and detected with TMB solution that is stopped with […]. Absorption was measured at 450 nm. Candidate peptides that show a high exchange yield (preferably higher than 50%, most preferred higher than 75%) are generally preferred for a generation and production of antibodies or fragments thereof, and/or T cell receptors or fragments thereof, as they show sufficient avidity to the MHC molecules and prevent dissociation of the MHC complexes.
In general terms: In an ELISA, binding on a coated surface is turned into a signal by an enzyme label.

On to “156 (FEVESLFQKY; listed as Homo sapiens) [compound 156]”, for which the “Peptide exchange (MHC class I binding score, peptide exchange yield)” value (“Peptide exchange” for short) was ““+++” (>50 = +++)”.

For “160 (EEETILHFF; listed as Homo sapiens) [compound 160]”, the “Peptide exchange” value was ““++” (>20% = ++)”.

Consider “167 (KEIGAAVQAL; listed as Homo sapiens) [compound 167]”, for which the “Peptide exchange” value is on record as ““+++” (>50 = +++)”.

“274 (GEAVTDHPDRLW; listed as Homo sapiens) [compound 274]”: the “Peptide exchange” value is listed as ““+++” (>50 = +++)”.

For “268 (NEDKGTKAW; listed as Homo sapiens) [compound 268]”, the “Peptide exchange” value is ““++” (>20% = ++)”.

For “271 (AESEDLAVHLY; listed as Homo sapiens) [compound 271]”, the “Peptide exchange” value is ““++” (>20% = ++)”.

Take “150 (EEVTDRSQL; listed as Homo sapiens) [compound 150]”: the “Peptide exchange” value was ““++” (>20% = ++)”.

For “172 (VEDGLFHEF; listed as Homo sapiens) [compound 172]”, the “Peptide exchange” value is given as ““+++” (>50 = +++)”.

As for “129 (GEGAYGKVF; listed as Homo sapiens) [compound 129]”, the “Peptide exchange” value is ““++++” (>75% = ++++)”.

With “173 (KEYDFGTQL; listed as Homo sapiens) [compound 173]”, the “Peptide exchange” value is ““++” (>20% = ++)”.

With “275 (TENPLTKLL; listed as Homo sapiens) [compound 275]”, the “Peptide exchange” value is reported as ““++++” (>75% = ++++)”.

As to “259 (EENTLVQNY; listed as Homo sapiens) [compound 259]”, the “Peptide exchange” value is listed as ““++” (>20% = ++)”.

For “137 (GELGGSVTI; listed as Homo sapiens) [compound 137]”, the “Peptide exchange” value is recorded as ““+++” (>50 = +++)”.

With “131 (EEFETIERF; listed as Homo sapiens) [compound 131]”, the “Peptide exchange” value is on record as ““++” (>20% = ++)”.

“269 (KELEDLNKW; listed as Homo sapiens) [compound 269]”: the “Peptide exchange” value is given as ““+++” (>50 = +++)”.

Take “148 (REYNEYENI; listed as Homo sapiens) [compound 148]”: the “Peptide exchange” value is listed as ““++” (>20% = ++)”.

Take “127 (TEYPVFVY; listed as Homo sapiens) [compound 127]”: the “Peptide exchange” value is ““+” (>10% = +)”.

For “267 (KEKFPINGW; listed as Homo sapiens) [compound 267]”, the “Peptide exchange” value is listed as ““+++” (>50 = +++)”.

As for “162 (DEAQARAAF; listed as Homo sapiens) [compound 162]”, the “Peptide exchange” value is ““++” (>20% = ++)”.

As to “176 (AENAVSNLSF; listed as Homo sapiens) [compound 176]”, the “Peptide exchange” value is ““++” (>20% = ++)”.

As to “258 (EELFRDGVNW; listed as Homo sapiens) [compound 258]”, the “Peptide exchange” value was ““+++” (>50 = +++)”.

For the substance “134 (SEYADTHYF; listed as Homo sapiens) [compound 134]”, the “Peptide exchange” value is given as ““+++” (>50 = +++)”.

Regarding “186 (NEQKIVRF; listed as Homo sapiens) [compound 186]”, the “Peptide exchange” value is given as ““+” (>10% = +)”.

As for “164 (SEYSHLTRV; listed as Homo sapiens) [compound 164]”, the “Peptide exchange” value is reported as ““++” (>20% = ++)”.

With “168 (QEIQSLLTNW; listed as Homo sapiens) [compound 168]”, the “Peptide exchange” value is ““+++” (>50 = +++)”.

As for “123 (EENPGKFLF; listed as Homo sapiens) [compound 123]”, the “Peptide exchange” value is given as ““+++” (>50 = +++)”.

Consider “265 (QEVDASIFKAW; listed as Homo sapiens) [compound 265]”, for which the “Peptide exchange” value is recorded as ““+++” (>50 = +++)”.

Turning to “270 (AESEDLAVHL; listed as Homo sapiens) [compound 270]”, the “Peptide exchange” value is given as ““++” (>20% = ++)”.

With “149 (SEKETVAYF; listed as Homo sapiens) [compound 149]”, the “Peptide exchange” value is given as ““+++” (>50 = +++)”.

Turning to “136 (AEYKGRVTL; listed as Homo sapiens) [compound 136]”, the “Peptide exchange” value is ““++++” (>75% = ++++)”.

Turning to “184 (RMPPFTQAF; listed as Homo sapiens) [compound 184]”, the “Peptide exchange” value is recorded as ““++” (>20% = ++)”.

For “132 (GELPAVRDL; listed as Homo sapiens) [compound 132]”, the “Peptide exchange” value is ““++” (>20% = ++)”.

“169 (EENGEVKEL; listed as Homo sapiens) [compound 169]”: the “Peptide exchange” value is reported as ““++” (>20% = ++)”.

On to “161 (EEGDTLLHLF; listed as Homo sapiens) [compound 161]”, for which the “Peptide exchange” value is recorded as ““+++” (>50 = +++)”.

Regarding “126 (EENKPGIVY; listed as Homo sapiens) [compound 126]”, the “Peptide exchange” value is recorded as ““++” (>20% = ++)”.

Turning to “273 (AEIEIVKEEF; listed as Homo sapiens) [compound 273]”, the “Peptide exchange” value was ““++” (>20% = ++)”.

Turning to “122 (KELPGVKKY; listed as Homo sapiens) [compound 122]”, the “Peptide exchange” value is on record as ““++” (>20% = ++)”.

In the case of “145 (AEPLVGQRW; listed as Homo sapiens) [compound 145]”, the “Peptide exchange” value is ““+++” (>50 = +++)”.

Regarding “146 (SESKTVVTY; listed as Homo sapiens) [compound 146]”, the “Peptide exchange” value is ““+++” (>50 = +++)”.

“165 (VELDLQRSV; listed as Homo sapiens) [compound 165]”: the “Peptide exchange” value was ““++” (>20% = ++)”.

With “180 (EEPAFNVSY; listed as Homo sapiens) [compound 180]”, the “Peptide exchange” value is recorded as ““++” (>20% = ++)”.

Regarding “185 (SEGDNVESW; listed as Homo sapiens) [compound 185]”, the “Peptide exchange” value was ““+++” (>50 = +++)”.

“260 (AEIGEGAYGKVF; listed as Homo sapiens) [compound 260]”: the “Peptide exchange” value is ““+++” (>50 = +++)”.

In the case of “170 (SENEQRRMF; listed as Homo sapiens) [compound 170]”, the “Peptide exchange” value was ““+++” (>50 = +++)”.

“178 (REYEHYWTEL; listed as Homo sapiens) [compound 178]”: the “Peptide exchange” value was ““+++” (>50 = +++)”.

Consider “183 (GESQDSTTAL; listed as Homo sapiens) [compound 183]”, for which the “Peptide exchange” value is reported as ““++” (>20% = ++)”.
